Source: article PMC9765439, “Systems-Wide Dissection of Organic Acid Assimilation in Pseudomonas aeruginosa Reveals a Novel Path To Underground Metabolism” (mBio, 2022)

B1: citrate synthase GltA from Pseudomonas aeruginosa (enzyme, UniProt P14165 1-428, looked up)
chain: MADKKAQLIIEGSAPVELPVLSGTMGPDVVDVRGLTATGHFTFDPGFMSTASCESKITYIDGDKGVLLHRGYPIEQLAEKSDYLETCYLLLNGELPTAAQKEQFVGTIKNHTMVHEQLKTFFNGFRRDAHPMAVMCGVIGALSAFYHDSLDINNPKHREVSAHRLIAKMPTIAAMVYKYSKGEPMMYPRNDLNYAENFLHMMFNTPCETKPISPVLAKAMDRIFILHADHEQNASTSTVRLAGSSGANPFACIASGIAALWGPAHGGANEAVLRMLDEIGDVSNIDKFVEKAKDKNDPFKLMGFGHRVYKNFDPRAKVMKQTCDEVLQELGINDPQLELAMKLEEIARHDPYFVERNLYPNVDFYSGIILKAIGIPTSMFTVIFALARTVGWISHWQEMLSGPYKIGRPRQLYTGHTQRDFTALKDRG
notes: citrate synthase GltA of Pseudomonas aeruginosa; PCR-amplified ORF of gltA cloned into pET-19m; printed length 429 amino acids; The hexamer is that of the crystal's asymmetric unit; also called GltAPa; citrate (CIT) synthase; source: E. coli, purified (Ni-NTA, His6 tag cleaved with TEV protease); not shown: His6, N-terminal, cleaved
B2: 2-methylcitrate synthase PrpC from Pseudomonas aeruginosa (enzyme)
chain: MAEAKVLSGAGLRGQVAGQTALSTVGQEGAGLTYRGYDVRDLAAAAIFEEVAYLLLYGELPNKQQLDAYLKKLQGQRDLPQALKEVLERIPKDAHPMDVMRTGASVLGTLEPELSFDQQRDVADRLLAAFPAIMTYWYRFTHEGQRIDCNSDEPTIGGHFLALLHGKKPSELHVKVMNVSLILYAEHEFNASTFTARVCASTLSDLYSCVTGAIGSLRGPLHGGANEAAMELIERFSSPQEATAELLKMLERKDKIMGFGHAIYKDSDPRNEVIKGWSKQLADEVGDKVLFAVSEAIDKTMWEQKKLFPNADFYHASAYHFMGIPTKLFTPIFVCSRTSGWTAHVFEQRANNRIIRPSAEYTGVEQRAFVPLEQR
notes: 2-methylcitrate synthase PrpC of Pseudomonas aeruginosa; PCR-amplified ORF of prpC cloned into pET-19m; printed length 376 amino acids, theoretical monomer mass 41.7 kDa; also called PrpCPa; 2-MCS; source: E. coli, purified (Ni-NTA, His6 tag cleaved with TEV protease); not shown: His6, N-terminal, cleaved

Tests used:
[1] = target: the molecule itself; assay: crystal structure; GltA apo, 20 to 25 mg/mL, sitting drop vapor diffusion, 19°C
[2] = target: the molecule itself; assay: crystal structure; PrpC apo and oxaloacetate-bound (2.5 mM oxaloacetate) crystals; sitting drop, 100 to 200 mM Bis-Tris pH 5.5, 20 to 30% PEG 3350, 0.1% D-xylose, 19°C

Protein	stoichiometry N [1]	stoichiometry N [2]
B1	6	
B2		2
